Laboratory results reported in patent US20230129095A1, “PEPTIDE INHIBITORS OF INTERLEUKIN-23 RECEPTOR AND THEIR USE TO TREAT INFLAMMATORY DISEASES” (Protagonist Therapeutics, Inc., priority 2020, published 2023).
Bridges are numbered along the chain shown (N, C = ends). [ ]: non-standard residue; d: D form. Trp(7-Ph) = N[C@@H](Cc1c[nH]c2c(-c3ccccc3)cccc12)C(=O)O; 2Nal = N[C@@H](Cc1ccc2ccccc2c1)C(=O)O; AEF = NCCOc1ccc(C[C@H](N)C(=O)O)cc1; αMeK = C[C@](N)(CCCCN)C(=O)O; Abu = CC[C@H](N)C(=O)O

T1: interleukin-23 receptor (IL-23R), human (human, UniProt Q5VWK5 24-629)
T1 sequence (looked up): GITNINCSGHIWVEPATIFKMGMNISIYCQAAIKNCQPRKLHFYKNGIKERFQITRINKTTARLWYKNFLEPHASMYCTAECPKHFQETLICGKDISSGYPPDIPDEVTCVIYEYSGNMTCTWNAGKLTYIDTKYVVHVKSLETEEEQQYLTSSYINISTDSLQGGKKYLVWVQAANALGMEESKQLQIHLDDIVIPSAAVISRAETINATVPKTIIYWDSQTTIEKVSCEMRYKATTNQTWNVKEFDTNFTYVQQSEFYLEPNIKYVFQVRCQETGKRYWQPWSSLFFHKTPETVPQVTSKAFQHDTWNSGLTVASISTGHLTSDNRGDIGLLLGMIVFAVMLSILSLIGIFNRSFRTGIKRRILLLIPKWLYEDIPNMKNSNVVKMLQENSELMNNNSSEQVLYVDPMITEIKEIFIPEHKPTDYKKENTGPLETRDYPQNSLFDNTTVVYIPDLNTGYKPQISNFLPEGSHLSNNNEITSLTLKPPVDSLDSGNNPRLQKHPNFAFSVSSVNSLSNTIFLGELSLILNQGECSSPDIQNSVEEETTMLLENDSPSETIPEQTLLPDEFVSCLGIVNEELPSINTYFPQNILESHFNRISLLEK

B1: Peptide No. 1 (SEQ ID No. 1) (peptide)
peptide: XNTXKXXXXKNL
modifications: Ac-[Pen]-N-T-[W(7-Ph)]-[Lys(Ac)]-[Pen]-Phe[4-(2-aminoethoxy)]-[2-Nal]-[a-MeLys]-[Lys(Ac)]-N-[(D)Leu]-NH2; N-terminal acetyl, C-terminal amide; cyclized via Pen-Pen disulfide bond
B2: Peptide No. 16 (SEQ ID No. 16) (peptide)
peptide: XNTXKXXXXKNL
modifications: Ac-[Pen]-N-T-[W(7-Ph)]-[Lys(Ac)]-[Pen]-Phe[4-(2-aminoethoxy)]-[3Quin]-[a-MeLys]-[Lys(Ac)]-N-[(D)Leu]-NH2; N-terminal acetyl, C-terminal amide; cyclized via Pen-Pen disulfide bond
B3: Peptide No. 13 (SEQ ID No. 13) (peptide)
peptide: XNTXKXXXXENK
modifications: Ac-[Pen]-N-T-[W(7-Ph)]-[Lys(Ac)]-[Pen]-Phe[4-(2-aminoethoxy)]-[3Quin]-[THP]-E-N-[(D)Lys]-NH2; N-terminal acetyl, C-terminal amide; cyclized via Pen-Pen disulfide bond
B4: Peptide No. 14 (SEQ ID No. 14) (peptide)
peptide: XNTXKXXXXKNK
modifications: Ac-[Pen]-N-T-[W(7-Ph)]-[Lys(Ac)]-[Pen]-Phe[4-(2-aminoethoxy)]-[3Quin]-[a-MeLys]-[Lys(Ac)]-N-[(D)Lys]-NH2; N-terminal acetyl, C-terminal amide; cyclized via Pen-Pen disulfide bond
B5: Peptide No. 15 (SEQ ID No. 15) (peptide)
peptide: XNTXKXXXXENL
modifications: Ac-[Pen]-N-T-[W(7-Ph)]-[Lys(Ac)]-[Pen]-Phe[4-(2-aminoethoxy)]-[3Quin]-[THP]-E-N-[(D)Leu]-NH2; N-terminal acetyl, C-terminal amide; cyclized via Pen-Pen disulfide bond

molecular target: T1, interleukin-23 receptor (IL-23R), human; test: cell-based or functional assay

pStat3 HTRF IC50 (DB cells IL23R pSTAT3 cell assay, 0.5 nM IL-23)	Binder
0.518 nM	B1
0.365 nM	B2
0.386 nM	B3
0.993 nM	Ac-[Abu]QT[Trp(7-Ph)]K(Ac)C[AEF][2Nal][αMeK]K(Ac)N[dL]-NH2 (thioether 1-6) [Peptide No. 18 (SEQ ID No. 18)]
0.437 nM	B4
0.186 nM	B5

molecular target: T1, interleukin-23 receptor (IL-23R), human; test: cell-based or functional assay; remark: another data set of the same source

NK Cell Assay IC50 (IFNgamma secretion by human NK cells stimulated with IL-23 and IL-18)	Binder
4.3 nM	B1
2.9 nM	B2
1.55 nM	B3
6.28 nM	Ac-[Abu]QT[Trp(7-Ph)]K(Ac)C[AEF][2Nal][αMeK]K(Ac)N[dL]-NH2 (thioether 1-6) [Peptide No. 18 (SEQ ID No. 18)]
2.41 nM	B4
2.44 nM	B5
